Laboratory results as given in patent publication US20240034757A1.

Columns and labels:
Experiment in all cases: yeast surface display FACS re-test
[1] = target: CXCL9_HUMAN (human) (UniProt Q07325)
[2] = target: CXCL12_HUMAN (human) (UniProt P48061)
[3] = target: CXCL10_HUMAN (human) (UniProt P02778)
Chain of CXCL10_HUMAN (human) (P02778 22-98 limits assumed): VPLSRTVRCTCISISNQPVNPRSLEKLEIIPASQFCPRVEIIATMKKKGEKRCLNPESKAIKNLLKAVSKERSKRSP

Chain of CXCL9_HUMAN (human) (Q07325 23-125 limits assumed): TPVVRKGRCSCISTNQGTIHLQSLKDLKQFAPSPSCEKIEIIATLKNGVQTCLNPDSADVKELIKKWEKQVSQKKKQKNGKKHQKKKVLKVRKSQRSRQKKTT
Chain of CXCL12_HUMAN (human) (P48061 22-89 limits assumed): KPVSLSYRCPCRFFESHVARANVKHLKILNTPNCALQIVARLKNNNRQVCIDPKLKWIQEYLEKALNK

| Substance | % cells over threshold fluorescence [1] | % cells over threshold fluorescence [2] | % cells over threshold fluorescence [3] |
| --- | --- | --- | --- |
| P1086_IXORI (from UniProt A0A0K8RK34 29-94) | 54% |  |  |
| P1095_IXORI (from UniProt A0A0K8RCE3 24-112) |  | 47% |  |
| P1100_IXORI (from UniProt A0A0K8R556 29-96) | 55% |  |  |
| P1124_IXORI (from UniProt A0A0K8RG61 29-83) | 31% |  |  |
| P1074_IXORI (from UniProt A0A0K8RDH6 29-96) | 35% |  |  |
| P1096_IXORI (from UniProt A0A0K8RKE4 24-114) |  |  | 50% |
| P1080_IXORI (from UniProt A0A090XBL6 20-118) | 49% | 53% |  |
| P1134_IXORI (from UniProt A0A0K8RAI0 32-135) |  |  | 66% |
| P458_IXORI (from UniProt A0A0K8R7D4 25-90) | 37% |  |  |
